Paper doi:10.1101/2022.03.06.483192, “Structural maturation of SYCP1-mediated meiotic chromosome synapsis through conformational remodelling by molecular adapter SYCE3” (bioRxiv, 2022)
“And” between values parts separate entries of the source, which are not always exact repeats. Equal values may be shown once.

B4: SYCP1αN (domain or fragment, UniProt Q15431 101-362, looked up)
chain: GLSRVYSKLYKEAEKIKKWKVSTEAELRQKESKLQENRKIIEAQRKAIQELQFGNEKVSLKLEEGIQENKDLIKENNATRHLCNLLKETCARSAEKTKKYEYEREETRQVYMDLNNNIEKMITAFEELRVQAENSRLEMHFKLKEDYEKIQHLEQEYKKEINDKEKQVSLLLIQITEKENKMKDLTFLLEESRDKVNQLEEKTKLQSENLKQSIEKQHHLTKELEDIKVSLQRSVSTQKALEEDLQIATKTICQLTEEKETQ
notes: SYCP1 α-helical N-terminal region (αN), amino-acids 101-362; also called SYCP1's full α-helical N-terminal region (amino-acids 101-362); source: E. coli BL21(DE3), purified; alone or co-expressed with SYCE3
B5: SYCP1 αCore-ΔNtip (domain or fragment, UniProt Q15431 112-783, looked up)
chain: EAEKIKKWKVSTEAELRQKESKLQENRKIIEAQRKAIQELQFGNEKVSLKLEEGIQENKDLIKENNATRHLCNLLKETCARSAEKTKKYEYEREETRQVYMDLNNNIEKMITAFEELRVQAENSRLEMHFKLKEDYEKIQHLEQEYKKEINDKEKQVSLLLIQITEKENKMKDLTFLLEESRDKVNQLEEKTKLQSENLKQSIEKQHHLTKELEDIKVSLQRSVSTQKALEEDLQIATKTICQLTEEKETQMEESNKARAAHSFVVTEFETTVCSLEELLRTEQQRLEKNEDQLKILTMELQKKSSELEEMTKLTNNKEVELEELKKVLGEKETLLYENKQFEKIAEELKGTEQELIGLLQAREKEVHDLEIQLTAITTSEQYYSKEVKDLKTELENEKLKNTELTSHCNKLSLENKELTQETSDMTLELKNQQEDINNNKKQEERMLKQIENLQETETQLRNELEYVREELKQKRDEVKCKLDKSEENCNNLRKQVENKNKYIEELQQENKALKKKGTAESKQLNVYEIKVNKLELELESAKQKFGEITDTYQKEIEDKKISEENLLEEVEKAKVIADEAVKLQKEIDKRCQHKIAEMVALMEKHKHQYDKIIEERDSELGLYKSKEQEQSSLRASLEIELSNLKAELLSVKKQLEIEREEKEKLKREAKE
notes: SYCP1 α-helical core without the αNtip, amino-acids 112-783; tetramer alone by SEC-MALS; also called SYCP1's full α-helical core, in which αNtips were deleted (amino-acids 112-783); source: E. coli BL21(DE3), purified; alone or in complex with SYCE3
B6: SYCP1αNcore (domain or fragment, UniProt Q15431 206-362, looked up)
chain: ETRQVYMDLNNNIEKMITAFEELRVQAENSRLEMHFKLKEDYEKIQHLEQEYKKEINDKEKQVSLLLIQITEKENKMKDLTFLLEESRDKVNQLEEKTKLQSENLKQSIEKQHHLTKELEDIKVSLQRSVSTQKALEEDLQIATKTICQLTEEKETQ
notes: SYCP1 tetrameric core (αNcore), amino-acids 206-362; tetramer alone by SEC-MALS; two chains in the 2:1 complex with SYCE3; also called SYCP1 tetrameric core; SYCP1αNT; source: E. coli BL21(DE3), purified (amylose, TEV cleavage, anion exchange, SEC); alone or co-expressed with SYCE3; not shown: MBP, N-terminal, cleaved

Experiments:
SYCP1αNcore [1] = target: B6; test: SEC-MALS; purified proteins or co-expressed, purified complexes at 5-20 mg/ml; Superdex 200 Increase 10/300 GL, 20 mM Tris pH 8.0, 150 mM KCl, 2 mM DTT; settings: both partners purified
SYCP1αNcore [2] = target: B6; test: ITC; SYCE3 (400 µM) injected into SYCP1αNcore (70 µM); 30°C; 25 mM Tris pH 8.0, 250 mM KCl, 2 mM DTT; apparent; settings: both partners purified
SYCP1 αCore-ΔNtip = target: B5; test: SEC-MALS; purified proteins or co-expressed, purified complexes at 5-20 mg/ml; Superdex 200 Increase 10/300 GL, 20 mM Tris pH 8.0, 150 mM KCl, 2 mM DTT; settings: both partners purified
SYCP1αN = target: B4; test: as above; settings: both partners purified
SYCP1αN ΔNtip = target: T1, SYCP1αN ΔNtip (UniProt Q15431 112-362); test: as above; settings: both partners purified
T1 construct: SYCP1αN (101-362) with the αNtip (amino-acids 101-111) deleted; also called SYCP1 ΔNtip; source: E. coli BL21(DE3), co-expressed with SYCE3, complex purified
T1 sequence (looked up): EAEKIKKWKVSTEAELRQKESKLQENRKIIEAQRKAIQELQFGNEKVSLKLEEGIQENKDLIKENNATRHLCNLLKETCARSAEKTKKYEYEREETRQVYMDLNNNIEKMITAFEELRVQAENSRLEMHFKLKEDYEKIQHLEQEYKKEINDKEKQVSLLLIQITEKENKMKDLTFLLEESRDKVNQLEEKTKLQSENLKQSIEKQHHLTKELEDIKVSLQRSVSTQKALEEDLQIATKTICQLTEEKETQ

SYCP1αN V105E L109E = target: T2, SYCP1αN V105E L109E (UniProt Q15431 101-362, V105E | L109E); test: as above; settings: both partners purified
T2 construct: SYCP1αN, amino-acids 101-362, with V105E L109E; source: E. coli BL21(DE3), complex with SYCE3
T2 sequence (looked up): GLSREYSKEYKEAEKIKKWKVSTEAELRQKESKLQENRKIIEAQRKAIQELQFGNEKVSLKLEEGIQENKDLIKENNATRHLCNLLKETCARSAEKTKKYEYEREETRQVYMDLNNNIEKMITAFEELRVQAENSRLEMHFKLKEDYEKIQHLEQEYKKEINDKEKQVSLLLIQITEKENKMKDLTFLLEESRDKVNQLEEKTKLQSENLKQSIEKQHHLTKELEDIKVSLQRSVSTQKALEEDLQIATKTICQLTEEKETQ

[3] = target: the molecule itself; test: as above
[4] = target: T3, SYCE2-TEX12core, labelled (UniProt Q6PIF2 57-165; Q9BXU0 49-123, labelled with the Monolith NT Protein Labelling Kit RED (which chain is not told) | labelled with the Monolith NT Protein Labelling Kit RED (which chain is not told)); test: MST; SYCE3 titrated (1:1 dilutions) into 150 nM labelled SYCE2-TEX12core; Monolith NT.115, premium treated capillaries, excitation and MST power 40 %; apparent; settings: both partners purified
T3 construct: SYCE2 structural core; TEX12 structural core; source: E. coli BL21(DE3), purified
T3 sequence (looked up) 1: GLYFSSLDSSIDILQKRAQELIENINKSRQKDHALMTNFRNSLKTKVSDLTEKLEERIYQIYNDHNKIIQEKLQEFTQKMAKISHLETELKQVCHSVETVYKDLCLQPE
T3 sequence (looked up) 2: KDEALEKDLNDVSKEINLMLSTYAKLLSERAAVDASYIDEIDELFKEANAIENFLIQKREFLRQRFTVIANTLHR

MBP-SYCP1αN = target: T4, MBP-SYCP1αN (UniProt Q15431 101-362); test: SEC-MALS; MBP-SYCP1αN-His-SYCE3 complex on a Superose 6 increase 10/300 GL column; settings: both partners purified
T4 construct: SYCP1αN, amino-acids 101-362; source: E. coli BL21(DE3), co-expressed with His-SYCE3, complex purified
T4 sequence (looked up): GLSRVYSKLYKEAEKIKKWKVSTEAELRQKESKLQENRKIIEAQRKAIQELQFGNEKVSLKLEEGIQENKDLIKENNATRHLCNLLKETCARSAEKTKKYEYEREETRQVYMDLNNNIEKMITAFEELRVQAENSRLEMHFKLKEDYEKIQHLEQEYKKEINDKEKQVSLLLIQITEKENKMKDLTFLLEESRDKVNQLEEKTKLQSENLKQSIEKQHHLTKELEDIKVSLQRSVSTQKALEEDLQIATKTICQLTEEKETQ

MBP-SYCP1αNcore = target: T5, MBP-SYCP1αNcore (UniProt Q15431 206-362); test: SEC-MALS; purified proteins or co-expressed, purified complexes at 5-20 mg/ml; Superdex 200 Increase 10/300 GL, 20 mM Tris pH 8.0, 150 mM KCl, 2 mM DTT; settings: both partners purified
T5 construct: SYCP1 tetrameric core (αNcore), amino-acids 206-362; also called MBP-SYCP1 (amino-acids 206-362); source: E. coli BL21(DE3), co-expressed with SYCE3 constructs; in lysate for the pull-down, co-purified (amylose, anion exchange, SEC); not shown: MBP, N-terminal, kept
T5 sequence (looked up): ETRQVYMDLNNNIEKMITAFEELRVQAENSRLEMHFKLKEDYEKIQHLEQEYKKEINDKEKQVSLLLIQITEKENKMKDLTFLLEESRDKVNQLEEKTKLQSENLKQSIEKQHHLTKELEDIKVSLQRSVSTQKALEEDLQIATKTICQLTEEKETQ

B1: SYCE3 12-88 (domain or fragment, UniProt A1L190 12-88, looked up)
chain: DNMLKMLSDLNKDLEKLLEEMEKISVQATWMAYDMVVMRTNPTLAESMRRLEDAFVNCKEEMEKNWQELLHETKQRL
notes: SYCE3 residues 12-88; source: E. coli BL21(DE3), co-expressed with SYCP1αNcore, complex purified
stoichiometry N (SYCP1αNcore [1]): 2 SYCP1 chains per SYCE3 chain

B2: SYCE3 (natural protein, UniProt A1L190 1-88, looked up)
chain: MDDADPEERNYDNMLKMLSDLNKDLEKLLEEMEKISVQATWMAYDMVVMRTNPTLAESMRRLEDAFVNCKEEMEKNWQELLHETKQRL
notes: SYCE3, wild type; dimer alone by SEC-MALS; one chain in the 2:1 complex with SYCP1; also called SYCE3 wild-type; free SYCE3; source: alone or co-expressed with SYCP1 constructs; not shown: His, N-terminal, cleaved
Kd (SYCP1αNcore [2]): 0.17 µM | stoichiometry N (SYCP1 αCore-ΔNtip): 2 SYCP1 chains per SYCE3 chain | stoichiometry N (SYCP1αN): 2 SYCP1 chains per SYCE3 chain (2:1 species) and 2 SYCP1 chains per SYCE3 chain (4:2 species: 4 SYCP1, 2 SYCE3) | stoichiometry N (SYCP1αN ΔNtip): 2 SYCP1 chains per SYCE3 chain | stoichiometry N (SYCP1αN V105E L109E): 2 SYCP1 chains per SYCE3 chain | stoichiometry N (SYCP1αNcore [1]): 2 SYCP1 chains per SYCE3 chain | stoichiometry N [3]: 2 | Kd [4]: 21.8 µM

B3: His-SYCE3 (natural protein, UniProt A1L190 1-88, looked up)
chain: MDDADPEERNYDNMLKMLSDLNKDLEKLLEEMEKISVQATWMAYDMVVMRTNPTLAESMRRLEDAFVNCKEEMEKNWQELLHETKQRL
notes: SYCE3, wild type; SYCE3 1-88 (human) was cloned for the two-hybrid; also called SYCE3 wild-type (WT); source: E. coli BL21(DE3), co-expressed with MBP fusions; in lysate for pull-downs, co-purified (amylose, anion exchange, SEC); not shown: His, N-terminal, kept
stoichiometry N (MBP-SYCP1αN): 2 SYCP1 chains per SYCE3 chain (2:1 species) and 2 SYCP1 chains per SYCE3 chain (4:2 species: 4 SYCP1, 2 SYCE3) | stoichiometry N (MBP-SYCP1αNcore): 2 SYCP1 chains per SYCE3 chain

B4
binding result [3]: binds

B5
stoichiometry N [3]: 4

B6
stoichiometry N [3]: 4
